System: MS2 coat protein
Test: apparent KD of MS2 coat protein; higher = weaker reporter binding
Details: Eterna round: R107; input ligand: arginine 13.2 mM
How it was run: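 On-chip transcription from Illumina sequencing clusters produced the designed RNA switches. These were titrated with SNAP-549-labelled MS2 coat protein (twofold steps, 0.7 or 1.5 nM to 3 µM) in 100 mM Tris-HCl pH 7.5, 80 mM KCl, 4 mM MgCl2, with or without constant ligand. The apparent KD given is the per-design median of normalised cluster binding-curve fits.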

**Q.** With “ACUAGUUGUGCAGAUACCAGACAUGAGGAUCACCCAUGUUUGGGAUGUUCGCAUCUUCCUGUCCCUUGGCAGCUGUACAUCUAGA [Omei Theo B Exc v4]” as the sequence, how does the “apparent KD of MS2 coat protein” value read?
**A.** 60.9 nM

**Q.** Which “apparent KD of MS2 coat protein” value does the source give for “AUGGUUGUCGCGGCCGCCACUGUCGGCCGCCACUAAACAUGAGGAUCACCCAUGUAGGACCGGGACAGGACCGGGUGAUAACCAC [TryBS - #DoubleAptamer 3]” here?
**A.** 24.1 nM

**Q.** How did the “apparent KD of MS2 coat protein” value turn out when “AGUCUUGAACGAAGGAGCGACGUACAUGAGGAUCACCCAUGUGUGGAGCGAAAGCUCCAACGUCAGGUAGGUCGCGUUCGAGACA [Omei Arginine B SS A v2]” was run?
**A.** 14.9 nM

**Q.** How did the “apparent KD of MS2 coat protein” value turn out when “UAGCAUAGUACGGCCGCCACUCCUGGUUCCCGGCCGUGUGUAAGACAUGAGGAUCACCCAUGUAGGAGGACCGGGUAUCGCUUGC [theeternabot_sameState_MS2_Trp_B_22]” was run?
**A.** 12.5 nM

**Q.** How did the “apparent KD of MS2 coat protein” value turn out when “AGCGACAUGCGUGAUACCAGCUACAUGAGGAUCACCCAUGUACGUAGGAAACUACUGUGUAGCCCUUGGCAGCAUAGUGCAUGUC [Exclusion - Theophylline B (Freestyle 21)]” was run?
**A.** 14.6 nM

**Q.** Which “apparent KD of MS2 coat protein” value does the source give for “AUCGUACCUGAUGAUACCAGCAUGUGAUCGUAACAUGAGGAUCACCCAUGUAAUCAGUGAUGCCCUUGGCAGCAUGAUCGGUACA [Same State - Theophylline B (Freestyle 14)]” here?
**A.** 79.2 nM

**Q.** “UCGCUCUGGGUGAAUUCCGGAGAUGUGGAAGGAGCGGACGAAAGUCCAGGUAGGUCGCCAUCGGACAUGAGGAUCACCCAUGUAC [Same State - Arginine A (Freestyle 22)]” was tested. Which “apparent KD of MS2 coat protein” value did it give?
**A.** 55.6 nM

**Q.** Which “apparent KD of MS2 coat protein” value does the source give for “UUGGAUAUGCGAAGGAGCGGGAAAUAUAUAUAUAUAAUCCUAACAUGAGGAUCACCCAUGUCCCAGGUAGGUCGCGCAUAUUUGG [12.H]” here?
**A.** 48.1 nM

**Q.** Which “apparent KD of MS2 coat protein” value does the source give for “UUACAUGAGGAUCACCCAUGUCAUACAGAAGGAGCGUCACAUAAGACAGGUAGGUCGCUGUUAUAUCAUACUAUUAUAUCCUCUA [JR_Nu_ExcArginiA_Sub028]” here?
**A.** 22 nM

**Q.** For “UCGUGUAUAUCGGAUACCAGUGAAAUCGAUACAUGAGGAUCACCCAUGUGAGAGGAUGUACACCCUUGGCAGCUGUAUAUAUCUA”, which “apparent KD of MS2 coat protein” value is on record?
**A.** 19.5 nM

**Q.** With “ACAAGAGGUGGAAGGAGCGGGAGACAUGAGGAUCACCCAUGUGAAGUUUCGAGAGGAUCAUCCCAGGUAGGUCGCCAUGUCGAAA [ojjomullin]” as the sequence, how does the “apparent KD of MS2 coat protein” value read?
**A.** 199 nM

**Q.** For “CUUGGUAGAUCCUAGCUGCCAAGAGGUGAUACCAGCAUCGAAAGAUGCCCUUGGCAGCACCAACAUGAGGAUCACCCAUGUAAUA [(MT)''-(M)'-(T')-(Theo)-(Ms2)_Design1/22_4]”, which “apparent KD of MS2 coat protein” value is on record?
**A.** 24.3 nM

**Q.** “GAUUAAACAUGAGGAUCACCCAUGUAUAUACGAGGACCGGUACGGCCGCCACUCGUAAACGAGUAUCCUCGAAUAAACAUGAUAA [AK 2.1 SS Trypt (A)]” was tested. Which “apparent KD of MS2 coat protein” value did it give?
**A.** 44 nM

**Q.** With “AACAUGAGGGCGGCCGCCACUCCAUGAACAUGAGGAUCACCCAUGUUGAGGAUCACCCAUGUUGUGAGGACCGGGCCACAUGAGG [Exclusion Tryptophan B 3]” as the sequence, how does the “apparent KD of MS2 coat protein” value read?
**A.** 31.7 nM

**Q.** For “GCGAUGGAGCGAAGGAGCGGCUGUGACUACAUGAGGAUCACCCAUGUACGAUCGUAAGGUAGCCAGGUAGGUCGCGCUCCAUCGC [SSAB NP+V+V2 #17]”, which “apparent KD of MS2 coat protein” value is on record?
**A.** 18.7 nM

**Q.** With “AGCCCUGUGCUAGAUACCAGCUACAUGAGGAUCACCCAUGUGCGUCAGAAAUGACUGUGUAGCCCUUGGCAGCUAAAUGCAUGUA [Exclusion - Theophylline B (Freestyle 7)]” as the sequence, how does the “apparent KD of MS2 coat protein” value read?
**A.** 13.8 nM

**Q.** With “UGGUGUAGGGUAAAUAGGCUGAGUACAGAAGGAGCGCGAAUAAACGCAGGUAGGUCGCUGGACACAUGAGGAUCACCCAUGUUGA [Same State Arginine A GF 29]” as the sequence, how does the “apparent KD of MS2 coat protein” value read?
**A.** 10.8 nM

**Q.** With “CGAGUAAGAACAAUCGAAUAACGGUUUUCGCGAGGACCGGUACGGCCGCCACUCGUGUGAAAUAACACAUGAGGAUCACCCAUGU [3'end-1]” as the sequence, how does the “apparent KD of MS2 coat protein” value read?
**A.** 23.7 nM

**Q.** Which “apparent KD of MS2 coat protein” value does the source give for “AAGUGGCACGGAAGGAGCGAGUUUACCUAGAUAACAUGAGGAUCACCCAUGUAUAAUGGGACUCAGGUAGGUCGCCGUUGUCACU [#29 Same State - Arginine B]” here?
**A.** 24.9 nM

**Q.** For “AUACAUGAGGAUCACCCAUGUCAUACAGAAGGAGCGUCACAUAAGACAGGUAGGUCGCUGAUAAAUGGAUUAUAGUUUAUGAUUA [JR_SSArginiA_Sub016]”, which “apparent KD of MS2 coat protein” value is on record?
**A.** 17.5 nM

**Q.** With “AGUCUUAUAGGAAGGAGCGCAUACUUCACAUGAGGAUCACCCAUGUCAAGACGUGAGUCAGUGCAGGUAGGUCGCCUAACUAAGA [Same State - Arginine B (Freestyle 13)]” as the sequence, how does the “apparent KD of MS2 coat protein” value read?
**A.** 27.2 nM

**Q.** Which “apparent KD of MS2 coat protein” value does the source give for “AACGGUCGUACCGGAAUGAUCCUCAUGUAACGAGGACCGGUACGGCCGCCACUCGAUAACAUGAGGAUCACCCAUGUAAUAAUAA [|T'-M'-Trp-Ms2|_Design11]” here?
**A.** 18.8 nM

**Q.** For “ACGCCCAGGUAGGCUUAGUGGGAUAUGGAAGGAGCGCCGAUGCAGGCAGGUAGGUCGCCAUAGAACAUGAGGAUCACCCAUGUAA [#05 Same State - Arginine A]”, which “apparent KD of MS2 coat protein” value is on record?
**A.** 31.3 nM

**Q.** How did the “apparent KD of MS2 coat protein” value turn out when “CAGCCACAUGAGGAUCACCCAUGUGAUGAUACCAGCUUCGUCUUAAGCCCUUGGCAGCAUAUCUCUUUGUUCUCAUACAUAGCAU [theeternabot_sameState_MS2_Theo_A_16]” was run?
**A.** 12 nM

**Q.** “GAACAUAAGGAUAGUAUAAUAACUACAGAAGGAGCGUCAGGAAGGACAGGUAGGUCGCUGGAAGACAUGAGGAUCACCCAUGUUU [#03 Same State - Arginine A]” was tested. Which “apparent KD of MS2 coat protein” value did it give?
**A.** 20.6 nM

**Q.** How did the “apparent KD of MS2 coat protein” value turn out when “AUCCACAGCCGAAGGAGCGCUAUAGGAUGACAUGAGGAUCACCCAUGUGUGUGAUGUGGAUAGCAGGUAGGUCGCGGAGUGGAUU [Exclusion - Arginine B (Freestyle 10)]” was run?
**A.** 73 nM

**Q.** Which “apparent KD of MS2 coat protein” value does the source give for “AUAUUUAAUGGAAGGAGCGCGGAUAAUAAAGUGGGUAAACAUGAGGAUCACCCAUGUAAACCGCAGGUAGGUCGCCGAAAUAUAU [AstrosEXyARgB#8]” here?
**A.** 56.6 nM

**Q.** “UGUAUGUGAUCUGAUACCAGUCCAACUGGUAAAACCUGAGGAACACCCAGGUAAAAUUGGGACCCUUGGCAGCAGAUCGCAUACU” was tested. Which “apparent KD of MS2 coat protein” value did it give?
**A.** 99.5 nM

**Q.** “CUAUAGAUAAGAAGGAGCGUCGAAAAUGGGUAAACAUGAGGAUCACCCAUGUAAAGGGAACGACAGGUAGGUCGCUUAUUUAUAG [AstromonsSSArgB#6]” was tested. Which “apparent KD of MS2 coat protein” value did it give?
**A.** 124 nM

**Q.** How did the “apparent KD of MS2 coat protein” value turn out when “UCAGUGCAAGGAAGGAGCGGGUACAUGAGGAUCACCCAUGUGCAAGUGGUGAGUGUUCGUGCCCAGGUAGGUCGCCUAGCCUGGU [XArg-B19]” was run?
**A.** 36.4 nM

**Q.** With “UUCGCUGAGGGAAGGAGCGUGAAGACAUGAGGAUCACCCAUGUAGAGGCGCCGAAGGCGUUCGCAGGUAGGUCGCCCUCAGUGAG [#1 Same State - Arginine B Attempt #23 (HarryS)]” as the sequence, how does the “apparent KD of MS2 coat protein” value read?
**A.** 17.1 nM

**Q.** With “AAUAAAUCACAUGAGGAUCACCCAUGUGAUACCAGCCUGGAAACAGGCCCUUGGCAGCACAUGAGGAUCACCCAUGUGCUAAAUA [TheoAX 1 #DoubleMS2 #OpenEnded]” as the sequence, how does the “apparent KD of MS2 coat protein” value read?
**A.** 6.79 nM

**Q.** With “UGUCACUGUUUGGUUCAAUGAAGAAGAAUUCGAGGACCGGUACGGCCGCCACUCGCUAUGCAACAUGAGGAUCACCCAUGUAAAA [theeternabot_exclusion_MS2_Trp_A_31]” as the sequence, how does the “apparent KD of MS2 coat protein” value read?
**A.** 13.4 nM

**Q.** For “GAUAUGAUAAGAAGGAGCGUCGAAAAUGGGUAAACAUGAGGAUCACCCAUGUAAAGGGAACGACAGGUAGGUCGCUUAUUAUAUC [AstromonsSSArgB#19]”, which “apparent KD of MS2 coat protein” value is on record?
**A.** 146 nM

**Q.** Which “apparent KD of MS2 coat protein” value does the source give for “AUUUAUUAGACGGCCGCCACUUGAAAGCGACCUCAUAAAUGGGAACAUGAGGAUCACCCAUGUAAGAGGACCGGGUCUAGUAGAU [TryptB-ms2@45]” here?
**A.** 132 nM

**Q.** “CGGCCCUCACCUGAGGAACACCCAGGUGAUACCAGCCUGGAAACAGGCCCUUGGCAGCACCAGGUCAUCAAAGAUGACCAAGCCG [TheoAX 24 #SwitchBubble #AlternativeMS2]” was tested. Which “apparent KD of MS2 coat protein” value did it give?
**A.** 20.8 nM

**Q.** How did the “apparent KD of MS2 coat protein” value turn out when “UGUAUGGACUGAAGGAGCGGUAGAUAACUUGAGGAUCACCCAGGUAAUAAGGCGAAAGCCUACCAGGUAGGUCGCAGUCCAUACU” was run?
**A.** 203 nM

**Q.** With “CUUGUCGUAACUGAUACCAGUGUACUGACAUGAGGAUCACCCAUGUUGGGUUUUGUUGUACACCCUUGGCAGCAGAAUCGAUAAG [AstrosExyTheB#9]” as the sequence, how does the “apparent KD of MS2 coat protein” value read?
**A.** 68.8 nM

Same assay, conditions: Eterna round: R107; input ligand: none

**Q.** For “AUGGUUGUCGCGGCCGCCACUGUCGGCCGCCACUAAACAUGAGGAUCACCCAUGUAGGACCGGGACAGGACCGGGUGAUAACCAC [TryBS - #DoubleAptamer 3]”, which “apparent KD of MS2 coat protein” value is on record?
**A.** 25.9 nM

**Q.** How did the “apparent KD of MS2 coat protein” value turn out when “AGUCUUGAACGAAGGAGCGACGUACAUGAGGAUCACCCAUGUGUGGAGCGAAAGCUCCAACGUCAGGUAGGUCGCGUUCGAGACA [Omei Arginine B SS A v2]” was run?
**A.** 12.8 nM

Source: the supplement of paper PMC9170038
